Target: Zif268-HMGa1-mCherry fusion protein (Mus musculus? (Zif268) / Homo sapiens …)
Assay: SPR; about 140 nM; target immobilised on CM5 chip (Biacore)
Method: Affinity of the fusion proteins prepared in Example 1 to a target nucleic acid nucleotide sequence was measured using a surface plasmon resonance (SPR) system (Biacore) to determine the equilibrium dissociation constant, Kd, for forming the fusion protein-target nucleic acid complex. After immobilization of the target nucleic acid (SEQ ID NO. 9) to a CM5 chip, the fusion proteins were loaded into the microfluidic chamber of the SPR.

Sequence of Zif268-HMGa1-mCherry fusion protein (Mus musculus? (Zif268) / Homo sapiens …) (chain, as listed by the source): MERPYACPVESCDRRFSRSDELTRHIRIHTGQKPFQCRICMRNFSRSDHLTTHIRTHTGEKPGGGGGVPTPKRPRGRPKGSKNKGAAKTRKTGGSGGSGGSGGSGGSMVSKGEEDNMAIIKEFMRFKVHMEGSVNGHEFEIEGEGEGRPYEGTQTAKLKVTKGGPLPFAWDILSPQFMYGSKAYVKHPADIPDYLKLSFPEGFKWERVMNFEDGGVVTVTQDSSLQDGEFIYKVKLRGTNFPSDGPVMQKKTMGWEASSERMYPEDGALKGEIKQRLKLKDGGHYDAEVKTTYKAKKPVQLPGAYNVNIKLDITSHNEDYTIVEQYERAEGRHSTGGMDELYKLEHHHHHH

B1: target nucleic acid (Zif268 target) (dsDNA)
DNA 1: GTGTGTGTGTGATCTGCGTGGGCGGTAAG
DNA 2: CTTACCGCCCACGCAGATCACACACACAC
Kd: 140 nM
